The values that follow come from patent US20110166034A1.

Bounds are passed on as bounds.

Test [1] has as its target TCR of murine OT1 lymphocytes (specific for OVA257-264). Description: cell-based or functional assay.
Test [2] concerns the target F5 MART-1 TCR, on Jurkat^α-MART-1 cells or on transduced human PBMCs. Briefly: immuno-PCR of the DNA tag after staining of cells, gel electrophoresis.
Test [3] shares this target. Description: multiplexed cell sorting of a 1:1 cell mix; the number is an average over spots A and B.
Test [4] has as its target TCR specific for tyrosinase368-376, on Jurkat^α-Tyr cells. Briefly: immuno-PCR of the DNA tag after staining of cells, gel electrophoresis (non-cognate control).
In test [5] the target is F5 MART-1 TCR, on Jurkat^α-MART-1 cells or on transduced human PBMCs. Description: T cell capture density against the amount of p/MHC spotted on the covalent surface, Hill fit.
For test [6], the target named is TCR specific for tyrosinase368-376, on Jurkat^α-Tyr cells. Briefly: multiplexed cell sorting of a 1:1 cell mix; the number is an average over spots A and B.
Test [7] shares this target. Description: cell capture on a NACS array, mean of three spots of about 600 µm.

On to “H-2Kb-OVA257-264 ssDNA-p/MHC tetramers (SAC scaffold, encoded to strands A', B' and C') (from UniProt P01901 22-305) (peptide-MHC)”, for which the IFN-y clusters (ELISPOT-type sandwich assay on the array) in test [1] is 3 clusters.

For the substance “MART-1 26-35/HLA-A2.1 ssDNA-p/MHC tetramer on the SAC scaffold (from UniProt P61769 21-119) (peptide-MHC)”, the PCR cycles to detection of the DNA tag in test [2] is less than 15 cycles; in test [4], 10 cycles. The same substance showed an average density (T cells/spot) in test [3] of 661 T cells/spot.

Take “fluorescent MART-1 SA-PE tetramer (MART-1 26-35 loaded onto HLA-A2.1 MHC molecules) (from UniProt P61769 21-119) (peptide-MHC)”: in test [5], the K1/2 (p/MHC monomer at half max) turned out to be 5.7 ng.

In test [6], “tyrosinase368-376/HLA-A2.1 ssDNA-p/MHC tetramer on the SAC (streptavidin-cysteine) scaffold (from UniProt P61769 21-119) (peptide-MHC)” gave an average density (T cells/spot) of 661 T cells/spot. This substance registered a mean binding capacity (cells per spot) (T cells per spot) in test [7] of 1490.
